Experiments:
[1] = target: MtCNNMΔC R235L (Methanoculleus thermophilus); assay: crystal structure
[2] = target: MtCNNMΔC_(Δloop) (Methanoculleus thermophilus CNNM, residues 1-322 Δ259-262) (Methanoculleus thermophilus); assay: crystal structure

Substance | stoichiometry N [1] | stoichiometry N [2]
MtCNNMΔC R235L (domain or fragment) | 2 | –
MtCNNMΔC_(Δloop) (Methanoculleus thermophilus CNNM, residues 1-322 Δ259-262) (domain or fragment) | – | 2

Source: doi:10.1101/2021.02.11.430706
